Test results reported in patent US20190127480A1 (Regeneron, published 2019).

B1: BSPSMA/CD3-001 (bispecific antibody, IgG4, V domains shown)
VH 1: QVQLVESGGGVVQPGRSLRLSCAASGFTFITYGMHWVRQAPGKGLEWVAIIYYDESNKYYADSVKGRFTISRDISKNTLYLQMNGLRAEDTAVYYCARAPRVAVEEDYSYYYGMDVWGQGTTVTVSS
VH 2: EVQLVESGGGLVQPGRSLRLSCVASGFTFADFTMHWVRQAPGKGLEWVSGISWNSNSIDYADSVKGRFTISRDNAKKSLFLQMSSLRAEDTALYYCVKDRSGYSRFYYGMDVWGQGTTVTVSS
VL: EIVMTQSPATLSVSPGERAILSCRASQNINSNLAWYQQKPGQAPRLLIYGASTRATGVPARFSGSGSGTEFTLTIRSLQSEDFAVYYCQQYYNWPITFGHGTRLEIK
notes: modified (chimeric) IgG4 Fc domain as in US20140243504A1; also called PSMA-VH-3465 x CD3-VH-A, CD3-VL-A
B2: H1H2712N (antibody, human IgG1, V domains shown)
VH: EVQLVESGGGLVQPGGSLRLSCAATGFTFDDFTMHWVRQAPGKGLEWVSGISWNSGSIGYVDSVKGRFTISRDNAKNSLYLQMNSLRAEDTALYYCAKDNSGYGYYYYGMDVWGQGTTVTVSS
VL: EIVMTQSPATLSVSPGERATLSCRASHSVSRNSAWYQQKPGQAPRLLIYGASTRATGIPARFSGSGSGTEFTLTISSLQSEDFAIYYCQQYNNWPLTFGGGTKVEIK
notes: H1H: human IgG1 Fc
B3: CD3-VH-P (antibody, V domains shown)
VH: EVQLVESGGGLVQPGRSLRLSCVASGFTFDDYSMHWVRQAPGKGLEWVSGISWNSGSKDYADSVKGRFTISRDNAKNSLYLQMNSLRAEDTALYYCAKYGSGYGKFYHYGLDVWGQGTTVTVSS
VL: DIQMTQSPSSLSASVGDSVTITCRASQSINNYLNWYQQKPGKAPKLLIYTASSLLSGVPSRFSGSGSGTDFTLTISGLHPEDFATYFCQQSFSTPPITFGQGTRLDIK
notes: also called CD3 antibody designated CD3-VH-P
B4: H2M3563N (antibody, mouse IgG2, V domains shown)
VH: EVHLVESGGGLVQPGRSLRLSCAASGFTFDDYTMHWVRQAPGKGLEWVSDISWNSGSIGYADSVKGRFTVSRDNAKNSLYLQMNSLRGEDTALYYCAKDMSGYGHYGKYGMDVWGQGTTVTVSS
VL: DIQMTQSPSSLSASVGDRVTITCRASQSIRSYLNWYQQKPGKVPKLLIYAASSLQSGVPSRFSGSGSGTDFTLTINSLQPDDFATYYCQQTYSNPPITFGQGTRLEIK
notes: H2M: human variable regions, mouse IgG2 Fc
B5: H2M3547N (antibody, mouse IgG2, V domains shown)
VH: EAQLVESGGGLVQPGRSLRLSCTTSGFTFDDYTMHWVRQAPGKGLEWISDISWNGGTKGYADSVKGRFTISRDNAKNSLYLQMDSLRGEDTALYYCVKDKSGYGHFYFGLDVWGQGTTVTVSS
VL: DIQMTQSPSSLTASVGDRVTFTCRASQSISRHLSWYQQKPGKAPKLLIYAASSLESGVPSRFSGSGSGTDFTLTISSLHPEDFATYYCQQSYSNPPITFGQGTRLEIK
notes: as for B4

What was measured:
[1] = biological target: T1, human PSMA on PSMA-expressing cells (human, UniProt Q04609 1-750); assay: FACS on 22RV1 cells
T1 construct: Cell line is named under assay or readout in each row; also called B16F10.9/hPSMA; B16F10.9/PSMA
T1 sequence (Q04609 whole entry): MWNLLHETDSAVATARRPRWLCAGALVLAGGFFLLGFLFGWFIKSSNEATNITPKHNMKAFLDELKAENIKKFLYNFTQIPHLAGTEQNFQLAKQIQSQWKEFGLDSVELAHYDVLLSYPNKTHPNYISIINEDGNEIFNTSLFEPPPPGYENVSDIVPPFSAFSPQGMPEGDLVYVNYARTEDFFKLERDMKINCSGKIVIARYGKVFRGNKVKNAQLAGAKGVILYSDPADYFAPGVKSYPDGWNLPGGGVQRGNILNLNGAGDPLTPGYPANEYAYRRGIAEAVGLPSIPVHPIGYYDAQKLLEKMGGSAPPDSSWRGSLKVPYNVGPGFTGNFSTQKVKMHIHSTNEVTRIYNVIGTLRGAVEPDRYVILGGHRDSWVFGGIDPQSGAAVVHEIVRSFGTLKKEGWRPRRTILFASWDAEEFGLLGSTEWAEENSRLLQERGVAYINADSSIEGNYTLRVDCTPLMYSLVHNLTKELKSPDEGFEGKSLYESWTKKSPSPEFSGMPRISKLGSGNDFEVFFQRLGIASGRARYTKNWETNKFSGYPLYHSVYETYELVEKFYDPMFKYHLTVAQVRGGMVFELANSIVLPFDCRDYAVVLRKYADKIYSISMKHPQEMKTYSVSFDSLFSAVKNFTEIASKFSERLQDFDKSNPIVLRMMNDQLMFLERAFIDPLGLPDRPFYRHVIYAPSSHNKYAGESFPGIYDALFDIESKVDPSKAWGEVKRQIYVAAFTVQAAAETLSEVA
Experimental: Briefly, 2×10⁵ cells/well of human CD3-expressing Jurkat, cynomolgus T, or human PSMA-specific expressing cells were incubated with a serial dilution of bispecific antibodies for 30 min at 4° C. After incubation, cells were washed and a goat F(ab′)₂ anti-human Fcγ PE labeled secondary (Jackson Immunolabs) was added to the cells for an additional 30 min. Next, cells were washed, re-suspended in cold PBS+1% BSA and analyzed via flow cytometry on a BD FACS Canto II.
For FACS analysis, cells were gated by forward scatter height vs. forward scatter area for single events selection, followed by side and forward scatters. The EC₅₀ for cell binding titration was determined using Prism software. Values were calculated using 4-parameter non-linear regression analysis.

[2] = biological target: T2, human CD3 on CD3-expressing cells (Jurkat, human T cells) (human, UniProt P07766 23-207; P04234 22-171); assay: FACS on Jurkat cells
T2 construct: On cells CD3 stands within the T cell receptor complex (also gamma and zeta chains); also called human CD3 expressing Jurkat cells
T2 sequence (P07766 23-207 limits assumed, chain 1 of 2): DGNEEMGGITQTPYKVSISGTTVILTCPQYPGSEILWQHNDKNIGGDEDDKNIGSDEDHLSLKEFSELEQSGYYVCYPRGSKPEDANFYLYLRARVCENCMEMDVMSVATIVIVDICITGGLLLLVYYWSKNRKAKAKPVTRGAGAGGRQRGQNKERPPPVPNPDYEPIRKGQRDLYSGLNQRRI
T2 sequence (P04234 22-171 limits assumed, chain 2 of 2): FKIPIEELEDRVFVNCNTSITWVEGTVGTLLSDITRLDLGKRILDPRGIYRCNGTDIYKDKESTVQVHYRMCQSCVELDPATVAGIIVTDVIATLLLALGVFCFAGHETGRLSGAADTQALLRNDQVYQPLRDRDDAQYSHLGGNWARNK
How it was run: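 Jurkat (human CD3), cynomolgus T or PSMA-expressing cells (2×10⁵/well) incubated 30 min at 4° C with serially diluted bispecific antibodies, then 30 min with PE anti-human Fcγ F(ab′)₂. Single-cell gated flow cytometry; EC₅₀ from 4-parameter non-linear regression.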

[3] = biological target: T3, cynomolgus monkey CD3 expressed on monkey T-cells (PBMCs) (cynomolgus monkey, UniProt Q95LI5 22-198; Q95LI8 22-171); assay: FACS titration on monkey PBMCs, gated on CD2+CD4+ T cells
T3 construct: whole, on cells; Native CD3 on monkey T cells; gamma and zeta chains are also part of CD3 on cells; also called monkey PBMCs; mfPBMC
T3 sequence (Q95LI5 22-198, chain 1 of 2): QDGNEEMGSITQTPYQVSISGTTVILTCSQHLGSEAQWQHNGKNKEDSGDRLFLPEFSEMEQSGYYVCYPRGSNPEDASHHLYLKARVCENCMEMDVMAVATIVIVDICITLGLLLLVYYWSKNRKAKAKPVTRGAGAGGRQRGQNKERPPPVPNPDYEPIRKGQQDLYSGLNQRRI
T3 sequence (Q95LI8 22-171, chain 2 of 2): as the sequence (P04234 22-171 limits assumed, chain 2 of 2) above, with I5V, N15K, I20V, S32T, D33N, I34N, T64A, S74N, V83L, H141R counted along it
Experimental: FACS data was acquired using the following protocol: Cells at 2×10⁵ per well were incubated with serially diluted antibodies for 30 min on ice. Post incubation, cells were washed and secondary antibodies were added and incubated for an additional 30 minutes. After incubation, cells were washed, re-suspended in cold PBS containing 1% BSA and analyzed by flow cytometry. CD4+ monkey T cells were gated by side and forward scatters, and on the CD2+CD4+CD20− population. The EC₅₀s for cell binding titration were calculated using a 4-parameter non-linear regression analysis in GraphPad Prism.

[4] = biological target: T3, cynomolgus monkey CD3 expressed on …; assay: cell-based or functional assay
[5] = biological target: T4, cynomolgus CD3 on cynomolgus T cells (cynomolgus, UniProt Q95LI5 22-198; Q95LI8 22-171); assay: FACS titration of cynomolgus T cells
T4 construct: whole, on cells; also called Cyno T-cells; monkey T-cells
T4 sequence (Q95LI5 22-198, form in doubt, chain 1 of 2): as the sequence (Q95LI5 22-198, chain 1 of 2) above
T4 sequence (Q95LI8 22-171, form in doubt, chain 2 of 2): as the sequence (P04234 22-171 limits assumed, chain 2 of 2) above, with I5V, N15K, I20V, S32T, D33N, I34N, T64A, S74N, V83L, H141R counted along it

[6] = biological target: T2, human CD3 on CD3-expressing cells …; assay: FACS titration of Jurkat cells
[7] = biological target: human CD3 expressed on cells (Jurkat cells; human T-cells of PBMC) (human, UniProt P09693 23-182; P20963 22-164); assay: cell-based or functional assay
Chain of human CD3 expressed on cells (Jurkat cells; human T-cells of PBMC) (chain, as listed by the source, chain 1 of 4): as the sequence (P07766 23-207 limits assumed, chain 1 of 2) above
Chain of human CD3 expressed on cells (Jurkat cells; human T-cells of PBMC) (chain, as listed by the source, chain 2 of 4): as the sequence (P04234 22-171 limits assumed, chain 2 of 2) above
Chain of human CD3 expressed on cells (Jurkat cells; human T-cells of PBMC) (P09693 23-182, chain 3 of 4): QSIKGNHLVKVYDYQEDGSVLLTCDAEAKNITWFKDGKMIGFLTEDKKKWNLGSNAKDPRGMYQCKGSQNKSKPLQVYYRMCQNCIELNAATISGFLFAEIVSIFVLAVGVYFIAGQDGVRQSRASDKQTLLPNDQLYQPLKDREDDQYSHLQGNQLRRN
Chain of human CD3 expressed on cells (Jurkat cells; human T-cells of PBMC) (P20963 22-164, chain 4 of 4): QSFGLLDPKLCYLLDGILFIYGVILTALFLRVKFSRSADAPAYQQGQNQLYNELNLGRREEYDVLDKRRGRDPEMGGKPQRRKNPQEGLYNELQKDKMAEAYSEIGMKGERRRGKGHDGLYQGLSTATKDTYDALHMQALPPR

Binder	EC50 [3]	U937 Cytotoxicity Human T-cells [7]	other results
B1			EC50 [1]: 78.5 nM; EC50 [2]: 39.1 nM
B2	2.29 nM		EC50 [M] mfPBMC Proliferation [4]: 2.72e-12 M
B3			EC50 [5]: 1 to 40 nM; EC50 [6]: 1 to 40 nM
B4	0.165 nM	40.5 pM	
B5	0.112 nM	31.7 pM	
